Data on 8 molecules can be found in publication PMC3880865 (Nature structural & molecular biology, 2012).

For this assay, the target named is UbcH5B (UniProt P62837 1-147). The experiment in a line: SPR.

Changes are numbered by the printed parent chain. In names and notes the source's numbering stands.

B1: GST-CBL47–435 M222F (domain or fragment)
chain: PPGTVDKKMVEKCWKLMDKVVRLCQNPKLALKNSPPYILDLLPDTYQHLRTILSRYEGKMETLGENEYFRVFMENLMKKTKQTISLFKEGKERMYEENSQPRRNLTKLSLIFSHMLAELKGIFPSGLFQGDTFRITKADAAEFWRKAFGEKTIVPWKSFRQALHEVHPISSGLEAFALKSTIDLTCNDYISVFEFDIFTRLFQPWSSLLRNWNSLAVTHPGYMAFLTYDEVKARLQKFIHKPGSYIFRLSCTRLGQWAIGYVTADGNILQTIPHNKPLFQALIDGFREGFYLFPDGRNQNPDLTGLCEPTPQDHIKVTQEQYELYCEMGSTFQLCKICAENDKDVKIEPCGHLMCTSCLTSWQESEGQGCPFCRCEIKGTEPIVVDPFD
In the case of B1, the equilibrium dissociation constant (Kd) (as a rule, the equilibrium constant for the complex coming apart) stood at 320 µM.

B2: GST-CBL354–435 pY371 (domain or fragment)
chain: EPTPQDHIKVTQEQYELYCEMGSTFQLCKICAENDKDVKIEPCGHLMCTSCLTSWQESEGQGCPFCRCEIKGTEPIVVDPFD
modifications: phosphotyrosine at 371
Molecule B2 registered a Kd of 20 µM.

B3: GST-CBL47–435 Y368F pY371 V431A (domain or fragment)
chain: B1 chain with F176M, Y322F, V385A
modifications: phosphotyrosine at 371
As to B3, binding was characterised by a dissociation constant (Kd) of 43 µM. Compared with the last molecule, the Kd is about 2.1-fold higher.

B4: GST-CBL47–435 Y368F pY371 K389A (domain or fragment)
chain: B1 chain with F176M, Y322F, K343A
modifications: phosphotyrosine at 371
In turn, B4 displayed a Kd of 81 µM.

B5: GST-CBL354–435 Y368F pY371 (domain or fragment)
chain: B2 chain with Y15F
modifications: phosphotyrosine at 371
With B5, the Kd is 18 µM.

B6: GST-CBL354–435 WT (domain or fragment)
chain: B2 chain
Regarding B6, the Kd came out at 42 µM.

B7: GST-CBL354–435 Y371F (domain or fragment)
chain: B2 chain with Y18F
In turn, B7 came in with a dissociation constant Kd of 50 µM.

B8: GST-CBL354–435 Y368F (domain or fragment)
chain: B2 chain with Y15F
For the molecule B8, binding was put at a Kd of 38 µM.
